The results in this text go back to PMC10899256, “TBC1D23 mediates Golgi-specific LKB1 signaling” (Nature Communications, 2024).

Test [1] deals with T1, purified TBC1D23 PH domain (545–684) (human, UniProt Q9NUY8-2 545-684).
T1 construct: Used as prey for GST-tagged baits on glutathione beads and in ITC, so the GST was probably removed
The test is described as follows: ITC; LKB1-LFa motif peptides (1.0 mM) titrated into TBC1D23 PH domain (50 µM) at 25 °C; 100 mM Tris pH 8.0, 500 mM NaCl, 5% v/v glycerol. The settings on record: both partners purified. On the technique in general: ITC needs no label: the signal is the heat of the interaction.

In test [2] the target is T2, purified GST-TBC1D23 PH domain (545–684) (human, UniProt Q9NUY8-2 545-684).
T2 construct: also called purified TBC1D23 PH
T2 sequence (Q9NUY8 560-699): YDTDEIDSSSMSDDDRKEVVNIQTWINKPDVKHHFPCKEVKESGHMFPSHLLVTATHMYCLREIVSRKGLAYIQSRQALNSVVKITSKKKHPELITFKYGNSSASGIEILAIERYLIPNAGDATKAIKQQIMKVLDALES
The test is described as follows: pull-down; recombinant proteins: MBP or MBP-tagged LKB1 CRD-LFa held, purified GST-TBC1D23 PH as prey; same procedure as for GST-tagged proteins (50 mM Tris pH 8.0, 500 mM NaCl, 0.05% Triton X-100, 4 °C 1 h). The settings on record: both partners purified.

T1 sequence (Q9NUY8 560-699): as above

B1: LKB1 LFa peptide WT (peptide)
peptide: GADEDEDLFDIEDDIIYTQD
notes: LKB1 (STK11) LFa motif peptide; also called LKB1-LFa motif peptide; LKB1-LFa WT
By Kd is commonly meant the concentration at which binding is half-saturated. A lower Kd goes with tighter binding. As a reminder, the stoichiometry N is the number of molecules, sites or subunits per partner or assembly. Turning to B1, in test [1], the Ka was 1.25e+06 M⁻¹, the Kd was 800 nM and the “stoichiometry N” value stood at 1.

B2: LKB1 LFa peptide F354A (peptide)
peptide: GADEDEDLADIEDDIIYTQD
notes: LKB1 (STK11) LFa motif peptide with F354A; also called LKB1 F354A; LKB1-LFa mutants
Consider B2, for which, in test [1], the “fold by which the affinity of LKB1 WT is higher” value was around 3 fold.

B3: LKB1 LFa peptide F354L (peptide)
peptide: GADEDEDLLDIEDDIIYTQD
notes: LKB1 (STK11) LFa motif peptide with F354L, a mutation reported in Peutz–Jeghers patients and present in gnomAD; also called LKB1 F354L; LKB1-LFa mutants
Regarding B3, the “fold by which the affinity of LKB1 WT is higher” value in test [1] was around 3 fold.

B4: MBP-LKB1 CRD-LFa WT (domain or fragment, human, UniProt Q15831 347-433, looked up)
chain: ADEDEDLFDIEDDIIYTQDFTVPGQVPEEEASHNGQRRGLPKAVCMNGTEAAQLSTKSRAEGRAPNPARKACSASSKIRRLSACKQQ
notes: LKB1 (STK11) CRD, residues 347–433; also called LKB1 WT; LKB1 CRD (347–433)
Consider B4, for which, in test [2], the binding result is listed as “binds”.

B5: MBP-LKB1 CRD-LFa F354A (domain or fragment, human, UniProt Q15831 347-433, looked up)
chain: ADEDEDLADIEDDIIYTQDFTVPGQVPEEEASHNGQRRGLPKAVCMNGTEAAQLSTKSRAEGRAPNPARKACSASSKIRRLSACKQQ
notes: LKB1 (STK11) CRD, residues 347–433, with F354A; also called LKB1 F354A
On to B5, for which the binding result in test [2] is reported as “binds”.

B6: MBP-LKB1 CRD-LFa F354L (domain or fragment, human, UniProt Q15831 347-433, looked up)
chain: ADEDEDLLDIEDDIIYTQDFTVPGQVPEEEASHNGQRRGLPKAVCMNGTEAAQLSTKSRAEGRAPNPARKACSASSKIRRLSACKQQ
notes: LKB1 (STK11) CRD, residues 347–433, with F354L (reported in Peutz–Jeghers patients, present in gnomAD); also called LKB1 F354L
Regarding B6, the binding result in test [2] is reported as “binds”.
